# Assay results taken from patent US20230340152A1 (published 2023).
# T1: Human CD73 ECD (human, UniProt P21589 27-549)
# T1 sequence: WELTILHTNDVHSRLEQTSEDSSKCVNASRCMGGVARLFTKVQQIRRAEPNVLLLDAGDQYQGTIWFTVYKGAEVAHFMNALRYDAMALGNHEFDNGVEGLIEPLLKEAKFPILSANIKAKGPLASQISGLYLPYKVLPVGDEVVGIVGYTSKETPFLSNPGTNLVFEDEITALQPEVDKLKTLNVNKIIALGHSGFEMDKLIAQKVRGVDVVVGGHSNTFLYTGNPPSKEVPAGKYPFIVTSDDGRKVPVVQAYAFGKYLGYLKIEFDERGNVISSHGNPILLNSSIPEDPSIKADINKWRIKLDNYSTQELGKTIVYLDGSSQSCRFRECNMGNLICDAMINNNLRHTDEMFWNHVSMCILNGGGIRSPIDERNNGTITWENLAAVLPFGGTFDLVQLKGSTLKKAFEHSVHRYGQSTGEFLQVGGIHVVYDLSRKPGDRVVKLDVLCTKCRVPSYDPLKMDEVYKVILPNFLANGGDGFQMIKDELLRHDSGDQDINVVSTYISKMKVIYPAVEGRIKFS
# T2: Human CD73 on cells (MDA-MB-231, Jurkat CD73 knock-in, NCI-H322) (human, UniProt P21589 27-549)
# T2 sequence: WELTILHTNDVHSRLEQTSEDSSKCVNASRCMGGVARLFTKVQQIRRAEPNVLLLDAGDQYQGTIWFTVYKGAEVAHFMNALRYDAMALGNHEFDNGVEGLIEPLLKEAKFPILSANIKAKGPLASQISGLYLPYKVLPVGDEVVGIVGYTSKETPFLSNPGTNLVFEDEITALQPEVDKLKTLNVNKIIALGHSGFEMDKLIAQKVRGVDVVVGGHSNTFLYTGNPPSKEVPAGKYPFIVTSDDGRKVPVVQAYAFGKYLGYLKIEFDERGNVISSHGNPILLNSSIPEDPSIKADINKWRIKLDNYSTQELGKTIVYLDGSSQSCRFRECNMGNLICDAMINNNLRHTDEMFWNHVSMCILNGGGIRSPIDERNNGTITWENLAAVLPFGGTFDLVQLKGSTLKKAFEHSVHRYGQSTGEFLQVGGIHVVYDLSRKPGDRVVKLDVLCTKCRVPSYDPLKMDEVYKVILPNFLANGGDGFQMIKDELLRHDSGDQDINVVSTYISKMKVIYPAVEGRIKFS
# Experiments:
# Human CD73 ECD = biological target: T1, Human CD73 ECD; test: cell-based or functional assay
# [1] = biological target: T2, Human CD73 on cells (MDA-MB-231, Jurkat …); test: cell-based or functional assay
# [2] = biological target: T2, Human CD73 on cells (MDA-MB-231, Jurkat …); test: cell-based or functional assay; remark: listed apart in the source
# [3] = biological target: T2, Human CD73 on cells (MDA-MB-231, Jurkat …); test: FACS on MDA-MB-231 cells, vs CD730002SGMY
binder,measurement,setting,value
"CD730068 (antibody, V domains shown) VH: EVQLLESGGGLVQPGGSLRLSCAASGFTFSNYIMGWVRQAPGKGLEWVSSISSSGGATIYADSVKGRFTISRDNSKNTLYLQMNSLRAEDMAVYYCAKDHLGGHGMDVWGQGTTVTVSS VL: DIQMTQSPSSLSASVGDRVTITCRASQDISNYLAWFQQKPGKAPKSLIFAASSLESGVPSKFSGSGSGTDFTLTISSLQPEDSATYYCQQYNSYPLTFGGGTKVEIK","Enzyme Inhibition, rCD73, 1/EC50 (nM)",Human CD73 ECD,0 nM⁻¹
same,"Enzyme Inhibition, MDA-MB-231, 1/EC50 (nM)",[1],0 nM⁻¹
same,"Internalization, MDA-MB-231, 1/EC50 (nM)",[1],0 nM⁻¹
"Phen0203 hIgG1 (antibody, V domains shown) VH: EVQLVQSGGGVVQPGRSLRLSCAASGFRFSDFAMHWVRQAPGKGLEWVAGISYDGGNKYYADSVKGRFTISRDNSNNTLYLQMNSLRAEDTAVYYCAKDHGYSGYYGHLDYWGRGTLVTVSS VL: not shown","FabZAP internalization, EC50, MDA-MB-231",[2],92.5 pM
same,"FabZAP internalization, maximum toxicity, MDA-MB-231",[2],91%
"CD730069 (antibody, V domains shown) VH: EVQLLESGGGLVQPGGSLRLSCAASGFTFSEYQMGWVRQAPGKGLEWVSYIRSSGGQTIYADSVKGRFTISRDNSKNTLYLQMNSLRAEDTAVYYCARRTYSSGWHIDYWGQGTLVTVSS VL: DIQMTQSPDSLSASVGDRVTITCRASQSISRYLNWYQQKPGKAPKLLIYGASSLQSGVPSRFSGSGSGTDFSLTISSLQLEDFATYYCQQSYRTPLTFGGGTKVEIQ","Enzyme Inhibition, rCD73, 1/EC50 (nM)",Human CD73 ECD,0.038 nM⁻¹
same,"Enzyme Inhibition, MDA-MB-231, 1/EC50 (nM)",[1],0.0013 nM⁻¹
same,"Internalization, MDA-MB-231, 1/EC50 (nM)",[1],0.038 nM⁻¹
"CD730002SGMY CDRL2 T52S (Fab, V domains shown, format not clearly stated) VH: not shown VL: QSVLTQPPSVSVSPGQTASITCSGDKVGDKYASWYQQKPGQSPVLVIYEDSKRPSGIPERFSGSNSGNTATLTISGTQAMDEADYYCQAWDTSFWVFGGGTKLTVLL","FACS signal, fold improvement over parental antibody",[3],1.5 fold
"CD730002SGMY CDRL2 R54Y (Fab, V domains shown, format not clearly stated) VH: not shown VL: QSVLTQPPSVSVSPGQTASITCSGDKVGDKYASWYQQKPGQSPVLVIYEDTKYPSGIPERFSGSNSGNTATLTISGTQAMDEADYYCQAWDTSFWVFGGGTKLTVLV","FACS signal, fold improvement over parental antibody",[3],1.2 fold
"CD730002SGMY CDRH2 G65R (Fab, V domains shown, format in the FACS read-out not clearly stated) VH: EVQLLESGGGLVQPGGSLRLSCAASGFTFSSYAMSWVRQAPGKGLEWVSAISGSGGSTYYADSVKRRFTISRDNSKNTLYLQMNSLRAEDTAVYYCARDKGYYWYMDVWGQGTMVTVSS VL: QSVLTQPPSVSVSPGQTASITCSGDKVGDKYASWYQQKPGQSPVLVIYEDTKRPSGIPERFSGSNSGNTATLTISGTQAMDEADYYCQAWDTSFWVFGGGTKLTVL","FACS signal, fold improvement over parental antibody",[3],1.3 fold
"CD730002SGMY CDRH2 A60G (Fab, V domains shown, format in the FACS read-out not clearly stated) VH: EVQLLESGGGLVQPGGSLRLSCAASGFTFSSYAMSWVRQAPGKGLEWVSAISGSGGSTYYGDSVKGRFTISRDNSKNTLYLQMNSLRAEDTAVYYCARDKGYYWYMDVWGQGTMVTVSS VL: QSVLTQPPSVSVSPGQTASITCSGDKVGDKYASWYQQKPGQSPVLVIYEDTKRPSGIPERFSGSNSGNTATLTISGTQAMDEADYYCQAWDTSFWVFGGGTKLTVL","FACS signal, fold improvement over parental antibody",[3],1.3 fold
